Article PMC5961147 (Nucleic Acids Research, 2018)

Molecular target: the molecule itself
Experiment: cross-linking

B1: Flag-SART3 (natural protein, UniProt Q15020 1-963, looked up)
chain: MATAAETSASEPEAESKAGPKADGEEDEVKAARTRRKVLSRAVAAATYKTMGPAWDQQEEGVSESDGDEYAMASSAESSPGEYEWEYDEEEEKNQLEIERLEEQLSINVYDYNCHVDLIRLLRLEGELTKVRMARQKMSEIFPLTEELWLEWLHDEISMAQDGLDREHVYDLFEKAVKDYICPNIWLEYGQYSVGGIGQKGGLEKVRSVFERALSSVGLHMTKGLALWEAYREFESAIVEAARLEKVHSLFRRQLAIPLYDMEATFAEYEEWSEDPIPESVIQNYNKALQQLEKYKPYEEALLQAEAPRLAEYQAYIDFEMKIGDPARIQLIFERALVENCLVPDLWIRYSQYLDRQLKVKDLVLSVHNRAIRNCPWTVALWSRYLLAMERHGVDHQVISVTFEKALNAGFIQATDYVEIWQAYLDYLRRRVDFKQDSSKELEELRAAFTRALEYLKQEVEERFNESGDPSCVIMQNWARIEARLCNNMQKARELWDSIMTRGNAKYANMWLEYYNLERAHGDTQHCRKALHRAVQCTSDYPEHVCEVLLTMERTEGSLEDWDIAVQKTETRLARVNEQRMKAAEKEAALVQQEEEKAEQRKRARAEKKALKKKKKIRGPEKRGADEDDEKEWGDDEEEQPSKRRRVENSIPAAGETQNVEVAAGPAGKCAAVDVEPPSKQKEKAASLKRDMPKVLHDSSKDSITVFVSNLPYSMQEPDTKLRPLFEACGEVVQIRPIFSNRGDFRGYCYVEFKEEKSALQALEMDRKSVEGRPMFVSPCVDKSKNPDFKVFRYSTSLEKHKLFISGLPFSCTKEELEEICKAHGTVKDLRLVTNRAGKPKGLAYVEYENESQASQAVMKMDGMTIKENIIKVAISNPPQRKVPEKPETRKAPGGPMLLPQTYGARGKGRTQLSLLPRALQRPSAAAPQAENGPAAAPAVAAPAATEAPKMSNADFAKLFLRK
stoichiometry N: 2
